{
  "source": "patent US11419948B2",
  "about": "“Functionalized microgels with fibrin binding elements” (Georgia Tech Research Corporation, priority 2013, dated 2022)",
  "molecules": {"B1": {"name": "PLPs: ultra-low crosslinked pNIPAm-AAc microgels conjugated to fibrin-specific sdFv H6 (conjugate)", "VH": "QVQLLESGGGLVQPGGSLRLSCAASGDRFTHNDMGWVRQAPGKGLEWVSTIPTTDGSTYYADSVKGRFTISRDNSKSTLYLQMNSLRAEDTAVYYCATGYMWKAPAYVKYWGQGTLVTVSSAAAEQKLISEEDLNSAAHYTDIG"}, "B2": {"name": "H6: fibrin-specific human sdFv clone from phage biopanning, SEQ ID NO: 1 (protein)", "VHH": "B1 VH"}},
  "key": {"platelet-poor plasma": {"tested_on": "platelet-poor plasma", "experiment": "Gross clot contraction of platelet-poor plasma clots", "assay_type": "biochemical", "source_text": "Clot collapse was characterized at the macroscopic level by performing standard gross clot contraction experiments routinely utilized by platelet biologists, Thomas, et al., BMC Cell Biology, 8:46 (2007); Suzuki-Inoue, et al., Thrombosis Research, 120:251-258 (2007). It was expected that particle deformability would play a large role in the ability of fibrin-binding microgels to induce gross clot deformation and architectural changes. Clots were created through the addition of 1 U/mL thrombin (final concentration) to platelet-poor plasma containing microgels of varying crosslinking. Clot collapse was observed within 48 hours in the presence of PLPs but not under any other conditions tested (FIG. 4B). […] Because natural platelet mediated contraction decreases clot degradation rates, we analyzed clot degradation rates in the absence or presence of PLPs. […] Because clot contraction was not observed in the presence of non-fibrin binding ULC microgels or in the presence of fibrin-binding BIS crosslinked microgels or hard PS particles, we conclude that, while enhancement of clotting in vitro only requires high affinity and multivalency for fibrin, particle deformability is critical to the ability of fibrin-binding particles to induce clot collapse. To fully recapitulate the hemostatic functions of platelets (enhancement of dotting and clot contraction following hemostasis) it appears that both high fibrin affinity and high particle deformability are required."}, "traumatic injury": {"tested_on": "traumatic injury", "experiment": "Hemostasis in rodents following traumatic injury", "assay_type": "in vivo", "settings": "100 mg/kg intravenously"}, "fibrinogen": {"biological_target": "T1, fibrinogen (Homo sapiens, UniProt P02671+P02675+P02679)", "T1 sequence (P02671 20-629 limits assumed)": "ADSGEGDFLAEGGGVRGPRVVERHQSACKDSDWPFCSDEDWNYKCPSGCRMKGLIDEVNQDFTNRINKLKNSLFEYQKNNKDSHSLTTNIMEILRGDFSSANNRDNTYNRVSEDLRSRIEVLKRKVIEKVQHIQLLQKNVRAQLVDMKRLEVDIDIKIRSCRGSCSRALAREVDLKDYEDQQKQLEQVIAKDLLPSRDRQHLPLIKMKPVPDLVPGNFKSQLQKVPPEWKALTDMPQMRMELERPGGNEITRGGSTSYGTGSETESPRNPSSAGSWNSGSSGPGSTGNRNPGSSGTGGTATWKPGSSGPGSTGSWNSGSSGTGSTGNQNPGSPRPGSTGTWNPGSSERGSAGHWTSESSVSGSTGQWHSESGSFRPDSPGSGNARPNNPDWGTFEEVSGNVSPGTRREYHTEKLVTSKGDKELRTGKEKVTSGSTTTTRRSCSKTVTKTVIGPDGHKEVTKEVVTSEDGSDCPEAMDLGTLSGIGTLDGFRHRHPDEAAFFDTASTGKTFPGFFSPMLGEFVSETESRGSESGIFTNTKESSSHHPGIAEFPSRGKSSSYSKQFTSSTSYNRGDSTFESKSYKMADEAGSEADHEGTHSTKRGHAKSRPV", "T1 sequence (P02675 31-491)": "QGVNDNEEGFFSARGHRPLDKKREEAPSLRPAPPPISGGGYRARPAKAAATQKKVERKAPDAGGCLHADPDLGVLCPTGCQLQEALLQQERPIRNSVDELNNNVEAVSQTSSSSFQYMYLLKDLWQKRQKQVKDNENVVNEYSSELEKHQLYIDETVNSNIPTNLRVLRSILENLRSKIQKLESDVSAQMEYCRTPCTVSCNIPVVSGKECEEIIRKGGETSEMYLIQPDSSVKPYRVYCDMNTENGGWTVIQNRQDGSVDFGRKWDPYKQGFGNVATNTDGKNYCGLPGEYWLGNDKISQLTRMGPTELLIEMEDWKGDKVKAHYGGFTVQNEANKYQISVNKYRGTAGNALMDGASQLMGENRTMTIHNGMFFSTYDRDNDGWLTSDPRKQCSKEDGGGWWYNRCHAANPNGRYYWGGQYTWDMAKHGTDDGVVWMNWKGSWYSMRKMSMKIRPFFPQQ", "T1 sequence (P02679 27-453)": "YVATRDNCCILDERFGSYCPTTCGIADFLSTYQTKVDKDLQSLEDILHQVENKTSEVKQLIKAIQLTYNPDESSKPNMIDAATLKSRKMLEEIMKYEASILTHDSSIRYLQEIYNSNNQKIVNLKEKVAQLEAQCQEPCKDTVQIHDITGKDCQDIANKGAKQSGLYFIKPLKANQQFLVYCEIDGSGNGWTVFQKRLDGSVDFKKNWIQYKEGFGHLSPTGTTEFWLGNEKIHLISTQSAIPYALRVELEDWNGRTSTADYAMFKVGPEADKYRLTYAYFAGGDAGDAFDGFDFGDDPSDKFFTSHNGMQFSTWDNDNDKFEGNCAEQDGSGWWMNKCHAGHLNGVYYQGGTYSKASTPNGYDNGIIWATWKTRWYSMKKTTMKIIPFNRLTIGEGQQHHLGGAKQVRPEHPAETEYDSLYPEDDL", "experiment": "ELISAs of H6 binding to fibrinogen in various states of unfolding", "protocol": "Characterization of H6 binding to fibrin was determined through a series of experiments designed to test the ability of H6 to bind fibrinogen in various states of unfolding.\nIn the first experiment ELISAs, as described previously, were performed comparing the ability of H6 to bind fibrinogen that was either passively adsorbed to a glass surface or immobilized to a glass surface, the assumption being that fibrinogen exists in a more unfolded state when adsorbed in comparison to when its immobilized on a surface.\nThis experiment was repeated comparing the ability of H6 to bind fibrinogen passively adsorbed to a plastic surface after having been heat-denatured, or not, with the assumption being that heat-denatured fibrinogen exists in a more unfolded state than that of fibrinogen that was not heat-denatured.\nFinally, this experiment was repeated to compare the ability of H6 to bind fibrinogen that was passively adsorbed after no treatment, heat denaturing, heat denaturing plus reduction of sulfide bonds, or just reduction of sulfide bonds. The assumption is that reduction of sulfide bonds within a fibrinogen molecule in addition to heat denaturing result in an even greater extent of molecular unfolding than compared to heat denaturing alone."}, "human plasma components": {"tested_on": "human plasma components", "experiment": "Quantitative human plasma binding ELISA", "settings": "five 10-fold plasma dilutions", "protocol": "The quantitative assay involved coating a 96-well high-binding plate with five different 10-fold plasma dilutions. H6, S11, or a positive-control anti-fibrinogen antibody were incubated in these wells to allow for binding with plasma components to occur. All wells were set-up in triplicate. After washing away unbound nanobody or antibody and treating with appropriate secondary antibodies and ELISA reagents, the amount of H6, S11 or anti-fibrinogen antibody remaining in each well was measured spectrophotomerically in a plate reader. All readings were normalized to wells in which PBS was incubated with plasma."}},
  "data": [
    {"molecule": "B1", "values": [
      {"measurement": "overall degree of clot contraction", "setting": "platelet-poor plasma; platelet-poor plasma with particles versus native platelet-rich plasma", "value": "No significant differences"},
      {"measurement": "time to clot collapse", "setting": "platelet-poor plasma; platelet-poor plasma, 1 U/mL thrombin", "value": "≤ 48", "unit": "h"},
      {"measurement": "rate of induced clot collapse", "setting": "platelet-poor plasma; versus native platelet-containing clots", "value": "significantly less"},
      {"measurement": "augmentation of hemostasis", "setting": "traumatic injury", "value": "effective to augment hemostasis"}
    ]},
    {"molecule": "B2", "values": [
      {"measurement": "binding to fibrinogen on glass surface", "setting": "fibrinogen; adsorbed and immobilized fibrinogen", "value": "weak"},
      {"measurement": "binding to immobilized versus adsorbed fibrinogen", "setting": "fibrinogen; glass surface", "value": "dose-dependent decrease in binding"},
      {"measurement": "binding to fibrinogen adsorbed to plastic surface", "setting": "fibrinogen; heat-denatured or not", "value": "weak binding"},
      {"measurement": "binding to fibrinogen versus degree of unfolding", "setting": "fibrinogen; no treatment, heat denaturing, reduction of sulfide bonds, or both", "value": "positively correlated to the degree of unfolding"},
      {"measurement": "binding to heat-denatured versus un-denatured fibrinogen", "setting": "fibrinogen; plastic surface", "value": "dose-dependent enhanced ability"},
      {"measurement": "binding to plasma-coated plate", "setting": "human plasma components", "value": "negligible binding"}
    ]}
  ]
}
